Consider one substance from article PMC4520625.

Assay [1] has as its target full-length human galectin-3 (human) (UniProt P17931). Nature of the assay: ITC. (In general: Isothermal titration calorimetry measures the heat released or taken up as one component is titrated into another.)
For assay [2], the target named is galectin-3 carbohydrate recognition domain (CRD) obtained by proteolytic truncation (human). Nature of the assay: ITC.

full-length human galectin-3 (human), sequence (P17931 whole entry, the tested form may be a part): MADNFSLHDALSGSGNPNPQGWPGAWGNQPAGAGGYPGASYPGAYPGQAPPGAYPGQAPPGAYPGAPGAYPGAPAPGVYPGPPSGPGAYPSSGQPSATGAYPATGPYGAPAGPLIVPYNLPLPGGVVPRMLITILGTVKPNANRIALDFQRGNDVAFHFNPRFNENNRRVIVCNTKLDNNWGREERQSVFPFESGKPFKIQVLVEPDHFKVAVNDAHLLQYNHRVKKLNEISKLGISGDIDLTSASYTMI

In the case of “MUC1-Ser5 glycopeptide carrying the TF antigen”, the dH is -1.33 kcal/mol in assay [1] and -4.11 kcal/mol in assay [2].
